In article PMC9637144 one finds IC50 data, which are given here for 1 substance.

In this assay the target is human IGF1R ectodomain (Δβ mutant) (human) (UniProt P08069). The assay is described as follows: radioligand binding.

Substance “human IGF-1 (unlabeled) (from UniProt P05019 49-118) (ligand)” yielded an IC50 of 400 pM.

A word on the IC50: it is the concentration at which inhibition is half-maximal.
